These results are taken from patent publication US20090318535.

The series deals with human BimEL (Bcl-2-Interacting Mediator of cell death, Extra Long isoform).

B1: human RSK1 (p90rsk/MAPKAP kinase-1) (protein)
chain: MEQDPKPPRLRLWALIPWLPRKQRPRISQTSLPVPGPGSGPQRDSDEGVLKEISITHHVKAGSEKADPSHFELLKVLGQGSFGKVFLVRKVTRPDSGHLYAMKVLKKATLKVRDRVRTKMERDILADVNHPFVVKLHYAFQTEGKLYLILDFLRGGDLFTRLSKEVMFTEEDVKFYLAELALGLDHLHSLGIIYRDLKPENILLDEEGHIKLTDFGLSKEAIDHEKKAYSFCGTVEYMAPEVVNRQGHSHSADWWSYGVLMFEMLTGSLPFQGKDRKETMTLILKAKLGMPQFLSTEAQSLLRALFKRNPANRLGSGPDGAEEIKRHVFYSTIDWNKLYRREIKPPFKPAVAQPDDTFYFDTEFTSRTPKDSPGIPPSAGAHQLFRGFSFVATGLMEDDGKPRAPQAPLHSVVQQLHGKNLVFSDGYVVKETIGVGSYSECKRCVHKATNMEYAVKVIDKSKRDPSEEIEILLRYGQHPNIITLKDVYDDGKHVYLVTELMRGGELLDKILRQKFFSEREASFVLHTIGKTVEYLHSQGVVHRDLKPSNILYVDESGNPECLRICDFGFAKQLRAENGLLMTPCYTANFVAPEVLKRQGYDEGCDIWSLGILLYTMLAGYTPFANGPSDTPEEILTRIGSGKFTLSGGNWNTVSETAKDLVSKMLHVDPHQRLTAKQVLQHPWVTQKDKLPQSQLSHQDLQLVKGAMAATYSALNSSKPTPQLKPIESSILAQRRVRKLPSTTL
For B1, the “in vitro kinase assay: phosphorylation of BimEL on serines 93/94/98” value is “RSK1 phosphorylates BimEL in vitro on serines 93/94/98 (the degron serines)”.
